From the nanobody polyreactivity screen of Harvey et al. (2022)

Test: yeast display, Sf9 membrane polyspecificity reagent, FACS + sequencing; frameworks hold sequencing errors
Outline: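 Synthetic nanobody libraries on Saccharomyces cerevisiae BJ5465 were galactose-induced for 36–48 hours, stained 1 hour at 4 °C with 10% biotinylated, detergent-solubilized Sf9 membrane reagent and enriched on streptavidin microbeads. FACS then separated cells into low and high (top ~1%) gates by anti-HA (expression) and streptavidin (reagent binding) fluorescence. Genes were colony-PCR amplified, MiSeq 2 × 250 sequenced and CDR-length filtered. A clone's polyreactivity label is that of its gate of origin.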

Sequence: QVQLVESGGGLVQAGGSLRLSCAASGSTFWLYAIGWYRQAPGTERELVAAIRSGDRTNYADSVKGRFTISRDNAKKTVYLEMNSLKPEDTAVYYCAAVAYLNWTPQYYWGQGTQVTVSS
- polyreactivity (PSR sort gate): low polyreactivity

Sequence: QVQLVESGGGLVQAGGSLRLSCAASGSTFWLYVMGWYRQAPGKERELVAAISSSGGRTYYADSVKGRFTISRDNAKNTVYLQMNSLKPEDTAVYYCNKYGTALWRYYYWGQGTQVTVSS
- polyreactivity (PSR sort gate): high polyreactivity

Sequence: QVQLVESGGGLVQAGGSLRLSCAASGSTFWNYAMGWYRQAPGKERELVAAISQRGGSTYYADSVKGRFTISRDNAKNTVYLQMNSLKPEDTAVYYCNIDYAGELDYWGQGTQVTVSS
- polyreactivity (PSR sort gate): high polyreactivity

Sequence: QVQLVESGGGLVQAGGSLRLSCAASGSTFWPNAMGWYRQAPGKERELVAAITGGGGTNYADSVKGRFTISRDNAKNTVYLQMNSLKPEDTAVYYCAAKKVNSRSHVKYYYWGQGTQVTVSS
- polyreactivity (PSR sort gate): high polyreactivity

Sequence: QVQLVESGGGLVQAGGSLRLSCAASGSTFWPYAMGWYRQAPGKERELVAAITRSGGSTYYADSVKGRFTISRDNAKNTVYLQMNSLKPEDTAVYYCAKYTSSRFEYDYWGQGTQVTVSS
- polyreactivity (PSR sort gate): low polyreactivity

Sequence: QVQLVESGGGLVQAGGSLRLSCAASGSTFWSYAMGWYRQAPGKERELVADIRWSGDGTYYADSVKGRFTISRDNAKITVYLQMNSLKPEDTAVYYCAADYFPVNSYGYWGQGTQVTVSS
- polyreactivity (PSR sort gate): low polyreactivity

Sequence: QVQLVESGGGLVQAGGSLRLSCAASGSTFWSYTMGWYRQAPGKERELVAAIRFSGGSTYYADSVKGRFTISRDNAKNTVYLQMNSLKPEDTAVYYCAAGYYRRPYEYWGQGTQVTVSS
- polyreactivity (PSR sort gate): low polyreactivity

Sequence: QVQLVESGGGLVQAGGSLRLSCAASGSTFWTNAMGWFRHAPGKVRELVATISKTTGRTNYADSEKGRFTISRDNAKNTVYLQMNSLKPEDTAVYYCAAEPYSWDTWVDYDYWGIGTQVTVSS
- polyreactivity (PSR sort gate): low polyreactivity

Sequence: QVQLVESGGGLVQAGGSLRLSCAASGSTFWTNDMGWYRQAPGKERELVAAISQSAGDTYYADSVKGRFTISRDNAKNTVYLQMNSLKPEDTAVYYCAADLVFYPFTWDGYYYWGQGTQVTVSS
- polyreactivity (PSR sort gate): low polyreactivity

Sequence: QVQLVESGGGLVQAGGSLRLSCAASGSTFWVNAMGWYRQAPGKVRELVAAIRRGGSTKYADSVKGRFTISRDNAKNTFYLQINSLKPEDTAVSYCAADAPGHEYYYWGQGTQVTVSS
- polyreactivity (PSR sort gate): high polyreactivity

Sequence: QVQLVESGGGLVQAGGSLRLSCAASGSTFWVYAMGWYRQAPGKERELVATISRGGSTNYADSVKGRFTISRDNAKNTVYLQMNSLKPEDTAVYYCAAPRFYGYGYEYCGQGTQVTVSS
- polyreactivity (PSR sort gate): low polyreactivity

Sequence: QVQLVESGGGLVQAGGSLRLSCAASGSTFWWNTMGWYRQAPWKERELVADIRTSGGGTYYADSVKGRFTISRDNAKNTVYLQMNSLKPEDTAVYYCNADPKWEMGSWGQGTQVTVSS
- polyreactivity (PSR sort gate): low polyreactivity

Sequence: QVQLVESGGGLVQAGGSLRLSCAASGSTFWWNTRGWYRQAPGKERELVADIRTSGGGTYYADSVKGRFTISLDNAKNTFYLQMNSLKPEDTAVYYCNADPKWEMGSWGQGTQVTVSS
- polyreactivity (PSR sort gate): low polyreactivity

Sequence: QVQLVESGGGLVQAGGSLRLSCAASGSTFWYYAMGWYRQAPGKESELVAGITQSGGSTYYADSVKGRFTISRDNAKNTVYLQMNSLKPEDTAVYYCAKDGRVSGDFDYWGQGTQVTVSS
- polyreactivity (PSR sort gate): low polyreactivity

Sequence: QVQLVESGGGLVQAGGSLRLSCAASGSTFWYYAMGWYRQEPGKERELVASITYSGGSTYYADSVKGRFTISRDNAKNTVYLQMNSLKPEDTAVYYCAAQSPAYYTKSYWGQGTQVTVSS
- polyreactivity (PSR sort gate): low polyreactivity

Sequence: QVQLVESGGGLVQAGGSLRLSCAASGSTFWYYGMGWYRQAPGKERELVAAITRGGSTYYADSVKGRFTISRDNAKNTVYLQMISLNPEDTAVYYCAAGISVRWSPSYYYWGQGTQVTVSS
- polyreactivity (PSR sort gate): high polyreactivity

Sequence: QVQLVESGGGLVQAGGSLRLSCAASGSTFWYYVMGWYRQAPGKERELVAAIDWTGDSTYYADSVKGRFTISRDNAKNTVYLQMNSLKPVDTAVYYCAAQKYYPYSYYLNNDYWGLGTQVTVSS
- polyreactivity (PSR sort gate): low polyreactivity

Sequence: QVQLVESGGGLVQAGGSLRLSCAASGSTFYANAMGWYRQAPGKERELVAAISSRGGSTSYADSVKGRFTISRDNAKNTVYLQMNSLKPEDTAVYYCNKVTRYYYRGFDYWGQGTQVTVSS
- polyreactivity (PSR sort gate): high polyreactivity

Sequence: QVQLVESGGGLVQAGGSLRLSCAASGSTFYANAMGWYRQAPGKERELVAAITRSGAGTYYADSVKGRFTISRDNAKNTVYLQMNSLKPEDTAVYYCAKRTKTPTGYVWGGYDYWGQGTQVTVSS
- polyreactivity (PSR sort gate): high polyreactivity

Sequence: QVQLVESGGGLVQAGGSLRLSCAASGSTFYANTMGWYRTAPGKERELVAAITYGGGNTYYADSVKGRFTISRDNAKNTVYLQMNSLKPEDTAVYYCAARDYVSYYTRFDYWGQGTQVTVSS
- polyreactivity (PSR sort gate): high polyreactivity

Sequence: QVQLVESGGGLVQAGGSLRLSCAASGSTFYAYAMGWYRQAPGKERELVAAIDSGGSTYYADSVKGRFTISRDNAKNTFYLEMNSLKPEDTAVYYCAVRHRYTRAYWGRDYWGQGTQVTVSS
- polyreactivity (PSR sort gate): low polyreactivity

Sequence: QVQLVESGGGLVQAGGSLRLSCAASGSTFYAYAMGWYRQAPGKERELVAAINSVGSTYYADSVKGRFTISRDNAKNTVYLQMNSLKPEDTAVYYCARGVDYPTSQPPYFRHDYWGQGTQVTVSS
- polyreactivity (PSR sort gate): low polyreactivity

Sequence: QVQLVESGGGLVQAGGSLRLSCAASGSTFYAYTKGWSRQAPGKERELVADISSGGGTYYADSVKGRFTISRDNAKNTVYLQMNSLKPEDTAVYYCNADWRVGRQLSKAKIPYDYWGQGTQVTVSS
- polyreactivity (PSR sort gate): low polyreactivity

Sequence: QVQLVESGGGLVQAGGSLRLSCAASGSTFYAYVMGWYRQAPGKERELVAAITSAGSTYYADSVKGRFTISRDNAKNTVYLQMNSLKPEDTAVYYCAAYYIVHSRQTQGFERYDYWGQGTQVTVSS
- polyreactivity (PSR sort gate): low polyreactivity

Sequence: QVQLVESGGGLVQAGGSLRLSCAASGSTFYAYVMGWYRQAPGKERELVAGISWSGGSTYYADSVKGRFTISRDNAKNTVYLQMNSLKPEDTAVYFFAADYYNTYGYDYWGQGTQVTVSS
- polyreactivity (PSR sort gate): low polyreactivity

Sequence: QVQLVESGGGLVQAGGSLRLSCAASGSTFYDNAMGWYRQAPGKERELVAAIDGGDTYYADSVKGRFTISRDNAKNTVYLQMISLKPEDTAVYYCAAESLPEISVGLGYWGQGTQVTVSS
- polyreactivity (PSR sort gate): low polyreactivity

Sequence: QVQLVESGGGLVQAGGSLRLSCAASGSTFYDNAMGWYRQAPGKERELVARIRWSGVRTYYADSVKGRFTISRDNAKNTVYLQMISLKPEDTAVYYCAAGRPRPHWWSLDYYYWGQGTQVTVSS
- polyreactivity (PSR sort gate): low polyreactivity

Sequence: QVQLVESGGGLVQAGGSLRLSCAASGSTFYFNAMGWYIQAPGKERELVADINYSGTSTYYADSVKGRFTISRDNAKNTVYLQMNSLKPEDTAVYYCAKSLPSSNTSTSYDYWGQGTQVTVSS
- polyreactivity (PSR sort gate): low polyreactivity

Sequence: QVQLVESGGGLVQAGGSLRLSCAASGSTFYFNAMGWYRQAPGKERELVATISDNDGSTNYADSVKGRFTISRDNAKNTVYLLMISLKPEDTGVYYCNADWYYYYEEDDYWGQGTQVTVSS
- polyreactivity (PSR sort gate): low polyreactivity

Sequence: QVQLVESGGGLVQAGGSLRLSCAASGSTFYFYAMGWYRQAPGKERELVAAISQSGGTTYYADSVKGRFTISRDNAKNTVFLQMNSLKPEDTAVYYCNADTDTWYTEYDYWGQGTQVTVSS
- polyreactivity (PSR sort gate): low polyreactivity

Sequence: QVQLVESGGGLVQAGGSLRLSCAASGSTFYFYAMGWYRQAPGKERELVAAISSSGGSTYYADSVKGRFTISRDNAKNTVYLQMNSLKPEDTAVYYCAADDAIYDSLDYWGQGTQVTVSS
- polyreactivity (PSR sort gate): low polyreactivity

Sequence: QVQLVESGGGLVQAGGSLRLSCAASGSTFYFYTMVWYRQAPGKEREFVAAISRRGGSTYYADSVKGRFTISRDNAKNTVYLQMNSLKPEDTAVYYCAAYTSTSDNGDSWGQGTQVTVSS
- polyreactivity (PSR sort gate): high polyreactivity

Sequence: QVQLVESGGGLVQAGGSLRLSCAASGSTFYGNAMGRYRQAPGKEWELVAAISWSGGSTYYADSVKGRFTISRDNAKNTVYLQMNSLKPEDTAVYYCNADGSDRVWYDGYDYWGQGTQVTVSS
- polyreactivity (PSR sort gate): low polyreactivity

Sequence: QVQLVESGGGLVQAGGSLRLSCAASGSTFYGNAMGWYRQAPGKERELVAAISWSGGSTYYADSVKGRFTISRDNAKNTVYLQMNSLKPEDTAVYYCNKDVLLYYVYGHDYWGQGTQVTVSS
- polyreactivity (PSR sort gate): low polyreactivity

Sequence: QVQLVESGGGLVQAGGSLRLSCAASGSTFYGYAMGWYRQAPGKERELVAAITRSGGSTYYADSVKGRFTISRDNAKNTVYLQMNSLKPEDTEVYYCNKYGYKGGVGYDYWGQGSQVTVSS
- polyreactivity (PSR sort gate): high polyreactivity

Sequence: QVQLVESGGGLVQAGGSLRLSCAASGSTFYGYAMGWYRQAPGKERELVAAITVRGGSTYYADSVKGRFTISRDNAKNTVYLQMNSLKPEDTAVYYCAKGRLRRTYYRNKFSFDYWGQGTQVTVSS
- polyreactivity (PSR sort gate): high polyreactivity

Sequence: QVQLVESGGGLVQAGGSLRLSCAASGSTFYGYTMGWYRQAPGKERELVAAISSSGSSTYYADSVKGRFTISRDNAKNTVYLQMNSLKPVDTAVYYCAAATRVPGHGSTSYYYWGQGTQVTVSS
- polyreactivity (PSR sort gate): high polyreactivity

Sequence: QVQLVESGGGLVQAGGSLRLSCAASGSTFYGYVMGWYRQAPGKERDFVAGITRGGSTNYADSVKGRFTISRDNAKNTVYLQMNSLKPEDTAVYYCATRYFSRYYYWGQGTQVTVSS
- polyreactivity (PSR sort gate): high polyreactivity

Sequence: QVQLVESGGGLVQAGGSLRLSCAASGSTFYHYAMGWYRQAPGKERELVAAISSSGGRTYYADSVKGRFTISRDNAKNTVYLQMNSLKPEDTAVYYCAARAKTSGSIEDYWGQGTQVTVSS
- polyreactivity (PSR sort gate): high polyreactivity

Sequence: QVQLVESGGGLVQAGGSLRLSCAASGSTFYINALGWYRQAPGKESELVAAITWNSDSTYYADSVKVRFTISRDNSKNTVYLQMNSLKPEDTAVYYCNHDRIIWGRLYEEGDYWGQGTQVTVSS
- polyreactivity (PSR sort gate): low polyreactivity

Sequence: QVQLVESGGGLVQAGGSLRLSCAASGSTFYIYAMGWSRQAPGKEREFVAAIDFSGSSTYADSVKGRFTISLDNAKNTVYLQMNSLKPEDTAVYYCAAYQIYQYYGPYDYWGQGTQVTVSS
- polyreactivity (PSR sort gate): low polyreactivity

Sequence: QVQLVESGGGLVQAGGSLRLSCAASGSTFYIYAMGWYRQAPGKEREFVAAIDLSGSSTYADSVKGRFTISRDNAKNTVYLQMKSLKPEDTAVYYCAAYQIYQYDGPYDYWGQGTQVTVSS
- polyreactivity (PSR sort gate): low polyreactivity

Sequence: QVQLVESGGGLVQAGGSLRLSCAASGSTFYIYAMGWYRQAPGKERELVARITRGGTTYADSVKGRFTISRDNAKNTVYLQMNSLKLEDTAVYYCNAASKTTRYYQAFYSGGGYWGQGTQVTVSS
- polyreactivity (PSR sort gate): high polyreactivity
